In patent publication US20240309113A1 (SUZHOU TRANSCENTA THERAPEUTICS, published 2024):
Residue numbers refer to the chain shown, from its start.

B1: 129C10 HdLb (antibody, human IgG4, V domains shown)
VH: QVQLVQSGAEVKKPGASVKVSCKASGYTFTDYYINWVRQAPGQGLEWMGWIFPGSESAYHSQKFQGRATLTVDTSISTAYMELSRLRSDDTAVYYCTRGDRSGPFAYWGQGTLVTVSS
VL: DVVMTQSPLSLPVTLGQPASISCKSSQSLLYSNGKTYLNWLQQRPGQSPRRLIYLVSKLDSGVPDRFSGSGSGADFTLKISRVEAEDVGVYYCVQVTHFPFTFGQGTKLEIK
notes: Humanized
B2: 129C10 HdLa (antibody, human IgG4, V domains shown)
VH: B1 VH
VL: B1 VL with A74T
notes: Humanized
B3: 129C10 HbLb (antibody, human IgG4, V domains shown)
VH: B1 VH with Q62E, Q65K, G66A
VL: B1 VL
notes: Humanized
B4: 129C10 HcLb (antibody, human IgG4, V domains shown)
VH: B1 VH with A68V, L70M
VL: B1 VL
notes: Humanized
B5: 129C10 HaLb (antibody, human IgG4, V domains shown)
VH: B1 VH with Q62E, Q65K, G66A, A68V, L70M
VL: B1 VL
notes: Humanized
B6: 129C10 HbLa (antibody, human IgG4, V domains shown)
VH: B1 VH with Q62E, Q65K, G66A
VL: B1 VL with A74T
notes: Humanized
B7: 129C10 HcLa (antibody, human IgG4, V domains shown)
VH: B1 VH with A68V, L70M
VL: B1 VL with A74T
notes: Humanized
B8: 129C10chiIgG4 (chimeric 129C10, human IgG4 kappa) (antibody, V domains shown)
VH: QVQLQQSGPELEKPGTSVKISCEASGYTFTDYYINWVQQRPGQGLEWIGWIFPGSESAYHSEKFKAKATLTVDTSSTTAYMLLTSLTSEDSAVYFCTRGDRSGPFAYWGQGTLVTVSA
VL: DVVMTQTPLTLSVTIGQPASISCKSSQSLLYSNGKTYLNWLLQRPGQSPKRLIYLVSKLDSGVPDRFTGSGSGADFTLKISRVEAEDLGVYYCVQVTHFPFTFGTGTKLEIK
notes: also called 129C10 mouse/chimeric
B9: 125D5chiIgG4 (chimeric 125D5, human IgG4 kappa) (antibody, V domains shown)
VH: QVQLQQSGPDLVKPGTSVKISCTASGYTFTDYYINWVKQRPGQGLEWIGWIFPGSGSPYYNENFKGRAMFTVDYSSSSAYMLLSSLTSEDSAVYFCTRGDRSGPFAYWGQGTLVTVSA
VL: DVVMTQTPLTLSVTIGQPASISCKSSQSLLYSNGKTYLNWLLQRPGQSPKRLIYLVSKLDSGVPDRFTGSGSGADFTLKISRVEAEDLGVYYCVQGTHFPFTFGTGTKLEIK
notes: also called 125D5chilgG4; 125D5 mouse/chimeric
B10: 160D10chiIgG4 (chimeric 160D10, human IgG4 kappa) (antibody, V domains shown)
VH: QVQLQQSGPELVKPGASVKISCKASGYTFTDYYINWVKQRPGQGLEWVGWIFPGSDSAYYNEKFKGKATLTVDTSSSTAYMLLSSLTSEDSAVYFCARGDRSGPFPYWGQGTLVTVSA
VL: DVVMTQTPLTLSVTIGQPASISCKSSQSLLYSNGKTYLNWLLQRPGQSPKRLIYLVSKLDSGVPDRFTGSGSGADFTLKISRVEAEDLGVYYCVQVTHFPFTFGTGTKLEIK
notes: also called 160D10 mouse/chimeric
B11: 129C10H2C1 (hybridoma antibody 129C10, mouse) (antibody, V domains shown)
VH: B8 VH
VL: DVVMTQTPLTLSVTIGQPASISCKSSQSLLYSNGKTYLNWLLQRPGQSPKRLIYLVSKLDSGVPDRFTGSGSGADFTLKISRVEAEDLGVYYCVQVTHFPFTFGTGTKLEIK
notes: Mouse monoclonal antibody purified from hybridoma supernatant; The label 129C10H2C1 is read as a subclone of 129C10; also called 129C10 mouse/chimeric
B12: 125D5G1G2 (hybridoma antibody 125D5, mouse) (antibody, V domains shown)
VH: B9 VH
VL: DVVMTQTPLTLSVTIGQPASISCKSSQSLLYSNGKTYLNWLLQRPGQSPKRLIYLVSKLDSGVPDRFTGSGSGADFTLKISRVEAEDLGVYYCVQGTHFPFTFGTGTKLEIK
notes: Mouse monoclonal antibody purified from hybridoma supernatant; The label 125D5G1G2 is read as a subclone of 125D5; also called 125D5 mouse/chimeric
B13: 160D10 (hybridoma antibody, mouse) (antibody, V domains shown)
VH: B10 VH
VL: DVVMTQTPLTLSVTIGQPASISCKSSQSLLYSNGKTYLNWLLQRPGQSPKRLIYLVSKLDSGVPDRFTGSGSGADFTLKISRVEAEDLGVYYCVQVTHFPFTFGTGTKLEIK
notes: Mouse monoclonal antibody purified from hybridoma supernatant; also called 160D10 mouse/chimeric

biological target: T1, human MASP-2 protein (recombinant, full-length, C-terminal tag) (human, UniProt O00187 16-686); experiment: BLI (ForteBio Octet RED96), antibody on Protein A biosensor, human MASP-2 in solution (100, 50, 25 nM)
T1 construct: The protein was secreted and purified on an anti-FLAG or anti-HIS column; also called hMASP-2; Full-length human MASP-2 protein; not shown: C-terminal HIS-tag or FLAG-tag
T1 sequence (O00187 16-686): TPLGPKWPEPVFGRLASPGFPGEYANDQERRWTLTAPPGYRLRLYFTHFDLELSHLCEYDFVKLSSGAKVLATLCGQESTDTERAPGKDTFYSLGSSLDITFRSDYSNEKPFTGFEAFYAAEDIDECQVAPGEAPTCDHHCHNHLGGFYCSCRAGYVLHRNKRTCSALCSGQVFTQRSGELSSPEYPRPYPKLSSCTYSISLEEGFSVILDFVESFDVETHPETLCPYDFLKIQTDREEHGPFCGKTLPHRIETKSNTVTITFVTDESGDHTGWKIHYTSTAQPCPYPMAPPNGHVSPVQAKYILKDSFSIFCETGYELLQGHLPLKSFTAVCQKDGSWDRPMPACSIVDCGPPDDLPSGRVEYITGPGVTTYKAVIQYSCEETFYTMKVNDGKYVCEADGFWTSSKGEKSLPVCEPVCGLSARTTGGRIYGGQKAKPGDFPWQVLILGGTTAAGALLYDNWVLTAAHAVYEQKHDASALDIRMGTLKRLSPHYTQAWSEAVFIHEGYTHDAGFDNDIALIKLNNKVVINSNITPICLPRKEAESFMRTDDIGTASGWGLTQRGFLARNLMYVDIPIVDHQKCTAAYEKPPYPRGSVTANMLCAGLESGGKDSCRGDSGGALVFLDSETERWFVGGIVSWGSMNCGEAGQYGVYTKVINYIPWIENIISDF

| Binder | Kd | koff | kon |
| --- | --- | --- | --- |
| B1 | < 0.001 nM | < 1e-07 s⁻¹ | 36000 M⁻¹ s⁻¹ |
| B2 | 17.1 nM | 0.000425 s⁻¹ | 24900 M⁻¹ s⁻¹ |
| B3 | < 0.001 nM | < 1e-07 s⁻¹ | 32900 M⁻¹ s⁻¹ |
| B4 | 1.36 nM | 4.56e-05 s⁻¹ | 33700 M⁻¹ s⁻¹ |
| B5 | 11.4 nM | 0.000291 s⁻¹ | 25500 M⁻¹ s⁻¹ |
| B6 | < 0.001 nM | < 1e-07 s⁻¹ | 32900 M⁻¹ s⁻¹ |
| B7 | < 0.001 nM | < 1e-07 s⁻¹ | 35200 M⁻¹ s⁻¹ |
| B8 | 8.02 nM | 0.000206 s⁻¹ | 25700 M⁻¹ s⁻¹ |
| B9 | 19.5 nM | 0.000499 s⁻¹ | 25600 M⁻¹ s⁻¹ |
| B10 | 0.984 nM | 3.34e-05 s⁻¹ | 34000 M⁻¹ s⁻¹ |

biological target: T1, human MASP-2 protein (recombinant, …); experiment: as above; remark: another data set of the same source

| Binder | Kd | koff | kon |
| --- | --- | --- | --- |
| B11 | 0.746 nM | 4.78e-05 s⁻¹ | 64000 M⁻¹ s⁻¹ |
| B12 | 1.64 nM | 9.73e-05 s⁻¹ | 59400 M⁻¹ s⁻¹ |
| B13 | 27.8 nM | 0.001 s⁻¹ | 36100 M⁻¹ s⁻¹ |
